Measured values reported in patent publication US20160152947A1 (BOARD OF REGENTS OF THE UNIVERSITY OF OKLAHOMA, published 2016).
Values belong to the binder of their own block, whether it stands above or below them.

Columns and labels:
[1] = molecular target: T1, MBP-Th-LGR4 LRR1-14 (MBP-Th-hLGR4.23-383-H6) (human, UniProt Q9BXB1 23-383); experiment: TR-FRET competition binding; Tb-labeled MBP-Th-LGR4 LRR1-14 (20 nM), AF488-labeled MBP-Th-RSPO2 Fu1-Fu2 (125 nM) as tracer
T1 construct: range 23-383; Produced in E. coli; Labeled with amine-reactive terbium chelate in the TR-FRET assay; unlabeled in the AlphaLISA ternary complex assay; also called MBP-Th-LGR4 ECD; LGR4 ECD; not shown: thrombin cut site (Th) linker
Experimental: (§1) HEK293T cells transfected with TOPFLASH firefly luciferase reporter and Renilla luciferase control plasmids were treated with the indicated concentrations of MBP-Th-RSPO Fu1-Fu2 proteins in 1:6 diluted Wnt3a conditioned media. […] (C) AlphaLISA® luminescent proximity assay (BMG Labtech GmbH, Ortenberg, Germany) for ZNRF3 ECD binding. The indicated concentrations of MBP—Th-RSPO Fu1-Fu2 proteins were incubated with 3 nM Biotin-ZNRF3 ECD. Donor and acceptor beads were at 20 μg/ml each. Data shown for panels A-C are representative of at least three independent experiments, each performed in duplicate. The error bars represent the S.E.M. of the experiment. (D, E, F) Vertical scatter plots showing the pECso, Eₘₐₓ, and pK₁ values obtained from replicate independent signaling and LGR4 binding experiments as in panels A and B. The mean values and error bars representing the S.E.M. of the replicates are denoted.
(§2) The LGR4 ECD binding abilities of the newly purified MBP-Th-RSPO Fu1-Fu2-H₆ proteins were examined in an in vitro LanthaScreen®TR-FRET competition-binding assay (Thermo Fisher Scientific Inc., Rockford, Ill.).

[2] = molecular target: T1, MBP-Th-LGR4 LRR1-14 …; experiment: TR-FRET competition binding; Tb-labeled MBP-Th-LGR4 LRR1-14, AF488-labeled MBP-Th-RSPO2 Fu1-Fu2 as tracer
[3] = molecular target: T1, MBP-Th-LGR4 LRR1-14 …; experiment: TR-FRET competition binding to LGR4 ECD
Experimental: as §1, §2

[4] = molecular target: T1, MBP-Th-LGR4 LRR1-14 …; experiment: AlphaLISA ternary complex control assay

B1: MBP-Th-RSPO3 Fu1-Fu2-H6 (MBP-Th-RSPO3.22-146-H6) (ligand)
chain: QNASRGRRQRRMHPNVSQGCQGGCATCSDYNGCLSCKPRLFFALERIGMKQIGVCLSSCPSGYYGTRYPDINKCTKCKADCDTCFNKNFCTKCKSGFYLHLGKCLDNCPEGLEANNHTMECVSIVHHHHHH
notes: Produced in E. coli; also called pAP355; not shown: thrombin cut site (Th) linker
pKI [1]: 7.31

B2: MBP-Th-RSPO2 Fu1-Fu2-H6 (MBP-Th-RSPO2.22-144-H6) (ligand)
chain: QGNRWRRSKRASYVSNPICKGCLSCSKDNGCSRCQQKLFFFLRREGMRQYGECLHSCPSGYYGHRAPDMNRCARCRIENCDSCFSKDFCTKCKVGFYLHRGRCFDECPDGFAPLEETMECVEGHHHHHH
notes: Produced in E. coli; also called pAC018; not shown: thrombin cut site (Th) linker
pKI [1]: 7.26

B3: MBP-Th-RSPO1 Fu1-Fu2-H6 (ligand)
chain: SRGIKGKRQRRISAEGSQACAKGCELCSEVNGCLKCSPKLFILLERNDIRQVGVCLPSCPPGYFDARNPDMNKCIKCKIEHCEACFSHNFCTKCKEGLYLHKGRCYPACPEGSSAANGTMECSSPHHHHHH
notes: Produced in E. coli; also called MBP-Th-hRSPO1 Fu1-Fu2-H6; not shown: thrombin cut site (Th) linker
pKI [1]: 6.9

Now from value to binder:

pKI [2]: 8.28 | fold stronger affinity than RSPO2 and RSPO3 [3]: ~7 fold | pKI [1]: 8.12
B4: MBP-Th-RSPO4 Fu1-Fu2-H6 (MBP-Th-RSPO4.21-138-H6), produced in E. coli (ligand)
chain: NRRKKQVGTGLGGNCTGCIICSEENGCSTCQQRLFLFIRREGIRQYGKCLHDCPPGYFGIRGQEVNRCKKCGATCESCFSQDFCIRCKRQFYLYKGKCLPTCPPGTLAHQNTRECQGEHHHHHH
notes: Bacterially produced; also called MBP-Th-RSPO4 (E. coli); pAP356; not shown: thrombin cut site (Th) linker

binding result [4]: no binding (tested: 5 nM each)
B5: Biotin-ZNRF3 ECD (Avi tag-ZNRF3.56-216-H6, MBP removed by thrombin) (receptor, human)
chain: KETAFVEVVLFESSPSGDYTTYTTGLTGRFSRAGATLSAEGEIVQMHPLGLCNNNDEEDLYEYGWVGVVKLEQPELDPKPCLTVLGKAKRAVQRGATAVIFDVSENPEAIDQLNQGSEDPLKRPVVYVKGADAIKLMNIVNKQKVARARIQHRPPRQPTEYHHHHHH
modifications: biotin on the N-terminal Avi tag (site-specific in vivo biotinylation by BirA)
notes: range 56-216; Expressed in E. coli as MBP-Th-Avi tag-ZNRF3.56-216-H6; also called biotinylated ZNRF3 ECD; B-Z; not shown: Avi tag (and residues left after thrombin cleavage)

pKI [2]: 8.23
B6: commercial full-length RSPO4 produced in CHO cells (R&D Systems, catalog number 4575-RS-025/CF) (ligand, UniProt Q2I0M5 20-234, looked up)
chain: LNRRKKQVGTGLGGNCTGCIICSEENGCSTCQQRLFLFIRREGIRQYGKCLHDCPPGYFGIRGQEVNRCKKCGATCESCFSQDFCIRCKRQFYLYKGKCLPTCPPGTLAHQNTRECQGECELGPWGGWSPCTHNGKTCGSAWGLESRVREAGRAGHEEAATCQVLSESRKCPIQRPCPGERSPGQKKGRKDRRPRKDRKLDRRLDVRPRQPGLQP
notes: mature; Bought protein; also called R&D RSPO4 (CHO)
